These results are taken from patent US20120065123A1, “Synthetic Antibodies” (priority 2009, published 2012).

Where no end group is shown, it is not given here.

The target in assay [1] is transferrin. Description: affinity characterization of the peptide; method not named.
Assay [2] deals with transferrin. Description: against the TRF26 lead.
The target of assay [3] is transferrin. Briefly: peptide microarray, rank by score; with organic prewash.
For assay [4], the target named is transferrin. Briefly: peptide microarray, rank by score; no organic prewash.
Assay [5] has as its target transferrin. Description: SPR kinetics, transferrin immobilised.
Assay [6] concerns the target transferrin. Briefly: peptide microarray of about 10,000 peptides, rank by score (555 nm intensity squared over 647 nm intensity); no organic prewash.
Assay [7] deals with transferrin. Description: SPR steady state, Biacore T100, transferrin immobilised.
Assay [8] has as its target Tumor Necrosis Factor-alpha (TNF-α). Description: SPR screen at 50 µM peptide, Biacore A100.
Assay [9] shares this target. Description: SPR equilibrium, Biacore A100, TNF-α captured on chip.
For assay [10] the target is unchanged. Briefly: SPR equilibrium; against the TNF1 lead.
Assay [11] deals with transferrin. Description: SPR steady state affinity model, Biacore T100, transferrin immobilised (9758 RU).
Assay [12] has as its target Tumor Necrosis Factor-alpha (TNF-α). Description: from SPR dissociation constants.
Assay [13] has the same target. Briefly: SPR kinetic fits of several sensorgrams.
For assay [14] the target is unchanged. Description: fluorescence anisotropy.
Assay [15] has the same target. Briefly: SPR kinetic fits of sensorgrams.
The target in assay [16] is transferrin. Description: SPR steady state.
Assay [17] has as its target transferrin. Description: affinity characterization of the peptide; method not named. The source holds these as a separate data set.

T100 sequence (P02787 20-698): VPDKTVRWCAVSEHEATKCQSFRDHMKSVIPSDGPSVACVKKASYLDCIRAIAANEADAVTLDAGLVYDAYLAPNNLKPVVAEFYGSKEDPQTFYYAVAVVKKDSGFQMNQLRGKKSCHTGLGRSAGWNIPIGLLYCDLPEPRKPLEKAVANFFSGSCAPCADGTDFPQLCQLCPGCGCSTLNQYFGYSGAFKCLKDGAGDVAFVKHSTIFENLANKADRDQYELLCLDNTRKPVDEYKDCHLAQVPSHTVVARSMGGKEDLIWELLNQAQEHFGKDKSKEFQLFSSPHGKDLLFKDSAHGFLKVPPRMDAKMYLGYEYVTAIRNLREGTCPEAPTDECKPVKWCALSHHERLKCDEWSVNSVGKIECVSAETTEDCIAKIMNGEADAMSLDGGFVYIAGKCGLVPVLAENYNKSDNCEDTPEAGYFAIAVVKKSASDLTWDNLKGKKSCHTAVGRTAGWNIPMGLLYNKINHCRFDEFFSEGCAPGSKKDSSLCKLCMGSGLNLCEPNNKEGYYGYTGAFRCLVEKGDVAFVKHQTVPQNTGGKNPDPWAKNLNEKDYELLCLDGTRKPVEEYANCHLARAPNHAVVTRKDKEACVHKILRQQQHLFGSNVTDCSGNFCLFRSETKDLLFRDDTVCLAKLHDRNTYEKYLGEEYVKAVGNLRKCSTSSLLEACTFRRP
Chain of Tumor Necrosis Factor-alpha (TNF-α) (P01375 77-233): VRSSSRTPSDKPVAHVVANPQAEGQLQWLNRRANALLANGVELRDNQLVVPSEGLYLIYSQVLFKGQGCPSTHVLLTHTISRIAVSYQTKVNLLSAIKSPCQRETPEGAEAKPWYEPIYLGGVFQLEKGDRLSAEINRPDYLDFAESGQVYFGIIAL

AHKVVYQRQIRHAYNRYGSC [TRF26 P6Y point-mutant]: in the assay with transferrin [1], the Binding ΔG was -6.93 kcal/mol and the Kd was 8.6 µM. For the same molecule, in the assay with transferrin [2], the Component Binding ΔG Contribution is -1.37 kcal/mol and the Kd Fold-Change Relative to Lead amounted to 10 fold.
Turning to GQTQFAMHRFQQWYKIKGSC [TRF20], in the assay with transferrin [3], the Rank -- prewash is 289 rank. In addition, in the assay with transferrin [4], the Rank - non-prewash came out at 18 rank.

B1: synbody comprising TRF-26 and TRF-23 (Example 9) (designed binder)
peptide 1: AHKVVPQRQIRHAYNRYGSG
peptide 2: FRGWAHIFFGPHVIYRGGSG
modifications: not fully specified (bridges); also: both C-termini joined to the alpha and epsilon amines of a lysine linker
With B1, the Kd in the assay with transferrin [5] came to 0.15 µM.
In turn, KEDNPGYSSEQDYNKLDGSC [TRF19] registered a Rank - non-prewash with transferrin [6] of 5010 rank. This molecule also displayed a Kd with transferrin [7] of 150 µM. In the assay with transferrin [3], the Rank -- prewash came out at 9600 rank.
FERDPLMMPWKFLQSRQGSC (modifications not checked) [TNF1 S11K point-mutant]: the fold enhancement in SPR binding response relative to TNF1 in assay [8] was above 15 fold. In assay [9], this molecule came in with a Binding ΔG of -6.03 kcal/mol and a Kd of 40 µM. In [10], this molecule had a Component Binding ΔG Contribution of -0.82 kcal/mol and a Kd Fold-Change Relative to Lead of 3.9 fold.
In [9], FERSYLKMPWSFLQSRQGSC (modifications not checked) [TNF1 D4S+P5Y+M7K triple mutant] displayed a Binding ΔG (observed) of -6.63 kcal/mol and a dissociation constant Kd of 14 µM. Besides, the Kd Fold-Change Relative to Lead in assay [10] worked out at 11 fold.
In the assay with transferrin [1], AHKVVPQRQIRHAYNRYGSC [TRF26] displayed a Binding ΔG of -5.56 kcal/mol and a Kd of 85 µM. Also, in the assay with transferrin [7], the Kd came to 100 µM. Moreover, the Rank -- prewash in the assay with transferrin [3] was 436 rank. Also, the Rank - non-prewash with transferrin [4] is 596 rank.
As for FERYPLMMPWSFLQSRQGSC (modifications not checked) [TNF1 D4Y point-mutant], in assay [8], the fold enhancement in SPR binding response relative to TNF1 is above 15 fold. Also, in assay [9], the Binding ΔG is -5.95 kcal/mol and the Kd came out at 44 µM. In assay [10], this molecule yielded a Component Binding ΔG Contribution of -0.74 kcal/mol and a Kd Fold-Change Relative to Lead of 3.6 fold.
For GHKVVPQRQMRHAYNRNGSC [TBPL025], in the assay with transferrin [11], the Kd was 150 µM.
On to FERYPLMMPWKFLQSRQGSC (modifications not checked) [TNF1 D4Y+S11K double mutant], for which, in [9], the Binding ΔG (observed) is -6.67 kcal/mol and the Kd amounted to 9.3 µM. Moreover, the Kd Fold-Change Relative to Lead in assay [10] came out at 17 fold.
The molecule APYAPQQIHYWSTLGFKGSC [TRF25] yielded a Kd with transferrin [7] of 60 µM. Besides, in the assay with transferrin [3], the Rank -- prewash amounted to 603 rank. In the assay with transferrin [4], the Rank - non-prewash came out at 736 rank.
For FERSYLKMPWKFLQSRQGSC (modifications not checked) [TNF1-opt (D4S+P5Y+M7K+S11K quadruple mutant of TNF1)], in assay [12], the difference in observed binding energy against the D4S+P5Y+S11K mutant is -0.94 kcal/mol, the difference in observed binding energy against the P5Y+M7K mutant is -1.73 kcal/mol and the difference in observed binding energy against the P5Y+S11K mutant is -1.66 kcal/mol. Also, the Kd in assay [13] amounted to 0.7 µM. In addition, the Kd in assay [14] was 1.1 µM. In addition, the off-rate constant (koff) in assay [15] came to 0.2 s⁻¹. In assay [9], the Binding ΔG (observed) is -7.97 kcal/mol and the Kd is 1.6 µM. The molecule further had a Kd Fold-Change Relative to Lead in [10] of 100 fold.
In the case of FERYPLKMPWSFLQSRQGSC (modifications not checked) [TNF1 D4Y+M7K double mutant], in [9], the Binding ΔG (observed) was -6.54 kcal/mol and the Kd came to 17 µM. This molecule also displayed a Kd Fold-Change Relative to Lead in [10] of 9.4 fold.
With AHKVVPQRQMRHAYSRYGSC [TBPM023], the Kd with transferrin [11] was found to be 11.6 µM. The fold improvement of affinity against the original peptide TRF26 with transferrin [16] is above 10 fold.
For the molecule LDPLFNTSIMVNWHRWMGSC [TRF27], the Rank -- prewash with transferrin [3] amounted to 3320 rank. The molecule further came in with a Rank - non-prewash in the assay with transferrin [4] of 1290 rank.
For the molecule FERDYLMMPWSFLQSRQGSC (modifications not checked) [TNF1 P5Y point-mutant], in assay [8], the fold enhancement in SPR binding response relative to TNF1 was above 15 fold. In [9], this molecule registered a Binding ΔG of -5.79 kcal/mol and a Kd of 58 µM. In assay [10], this molecule had a Component Binding ΔG Contribution of -0.58 kcal/mol and a Kd Fold-Change Relative to Lead of 2.7 fold.
HAYKGPGDMRRFNHSGMGSC [TRF22]: the Rank -- prewash in the assay with transferrin [3] came to 61 rank. In addition, the Rank - non-prewash with transferrin [4] was 711 rank.
As for FERDPLKMPWSFLQSRQGSC (modifications not checked) [TNF1 M7K point-mutant], the fold enhancement in SPR binding response relative to TNF1 in assay [8] was above 15 fold. In assay [9], this molecule displayed a Binding ΔG of -5.93 kcal/mol and a Kd of 57 µM. In [10], the Component Binding ΔG Contribution was -0.72 kcal/mol and the Kd Fold-Change Relative to Lead was determined as 2.8 fold.
As to FERSYLMMPWKFLQSRQGSC (modifications not checked) [TNF1 D4S+P5Y+S11K triple mutant], the difference in observed binding energy against the P5Y+S11K mutant in assay [12] is -0.72 kcal/mol. In addition, in [9], the Binding ΔG (observed) is -7.03 kcal/mol and the Kd came out at 7 µM. In addition, the Kd Fold-Change Relative to Lead in assay [10] was found to be 23 fold.
For the molecule SVKPWRPLLTGNRWLNSGSC [TRF24], the Kd in the assay with transferrin [7] was found to be 50 µM. This molecule gave a Rank -- prewash in the assay with transferrin [3] of 958 rank. The Rank - non-prewash in the assay with transferrin [4] came out at 71 rank.
For FRGWAHIFFGPHVIYRGGSC [TRF23] the same measures were 50 µM, 2090 rank and 2720 rank.
In assay [9], FERDYLMMPWKFLQSRQGSC (modifications not checked) [TNF1 P5Y+S11K double mutant] showed a Binding ΔG (observed) of -6.63 kcal/mol and a Kd of 24 µM. Besides, the Kd Fold-Change Relative to Lead in assay [10] came out at 6.6 fold.
On to GHKVVPQRQIRHAYNRYGSC [TBPL005], for which the Kd with transferrin [11] came out at 150 µM.
AHKVVPQRQIRFAYNRYGSC [TRF26 H12F point-mutant]: in the assay with transferrin [1], the Binding ΔG is -6.85 kcal/mol and the Kd was determined as 9.7 µM. In the assay with transferrin [2], this molecule showed a Component Binding ΔG Contribution of -1.29 kcal/mol and a Kd Fold-Change Relative to Lead of 8.8 fold. This molecule registered a Kd in the assay with transferrin [17] of 9.8 µM.
For AHKVVYQRQIRFAYNRYGSC [TRF26 P6Y+H12F double mutant], in the assay with transferrin [1], the Binding ΔG (observed) was -8.68 kcal/mol and the Kd worked out at 0.5 µM. In the assay with transferrin [2], the Kd Fold-Change Relative to Lead was 190 fold.
With QYHHFMNLKRQGRAQAYGSC [TRF21], the Kd with transferrin [7] was determined as 60 µM. Also, in the assay with transferrin [3], the Rank -- prewash was found to be 5 rank. In the assay with transferrin [4], this molecule gave a Rank - non-prewash of 84 rank.
In [9], FERDYLKMPWSFLQSRQGSC (modifications not checked) [TNF1 P5Y+M7K double mutant] yielded a Binding ΔG (observed) of -6.24 kcal/mol and a dissociation constant Kd of 27 µM. This molecule registered a Kd Fold-Change Relative to Lead in assay [10] of 5.8 fold.
